How the values were obtained:
PDGF-BB [1] = biological target: T1, PDGF-BB (UniProt P01127 P01127:82-190); assay: fluorescence thermal melt in solution; Tm about 55 C unbound to about 65 C bound; 1x PBS, 1 mM MgCl2, 0.1 mg/ml BSA; details: chain copies: 2 (homodimer, inferred); label: 5' fluorescein, 3' Black Hole Quencher 1
Method: In one representative experiment, aptamer comprising a competent binding state and a dye pair (fluoresceine and black hole quencher) was measured for their persistence in the changed environment of temperature as described herein. […] PDGF-BB, bovine serum albumine (BSA), magnesium chrolide, and phosphate buffered saline (PBS) all other buffers were ordered from Sigma-Millipore. 41T aptamer at a concentration of either 316 nM, or 100 nM, or 31.6 nM, or 10 nM were mixed with variable concentrations PDGF-BB (from […] dilution factor) in 1× PBS containing 1 mM MgCl₂, and 0.1 mg/ml BSA on white 384 well PCR plate (BioRad) and subjected to the following thermal protocol on BioRad CFX384 qPCR instrument: lid at 95° C., melting curve step from 30° C. to 80° C. with images (FAM/SYBR channel) every 0.5° C., 10 seconds per step. FIG. 5 presents melting curves (left panels) and the first derivative (right panels) of thermal titration experiments. To estimate the relative populations of free aptamers and aptamers bound to the target (% bound), the areas under the curve of the first derivative (dRFU/dT) were integrated for both unbound (left peak with Tₘ˜55° C.) and bound (right peak with Tₘ˜65° C.) peaks. % bound as a function of the target concentration is presented as a dose response in FIG. 6.

PDGF-AA = PDGF-AA (UniProt P04085 P04085:87-211); assay: surface thermal melt, 75-300 nM PDGF-AA; no binding and no dose response; 0.75 mg/mL HSA, 40% DMSO; details: tags: R&D Systems; chain copies: 2 (homodimer, inferred); label: 3' Cy3
Method: (§1) The solid support consisted of coated ITO glass slides functionalized with azido groups (Sikemia, Grabels, France) to form a covalent bond between the DBCO-labeled aptamer and the surface. PDGF-BB and PDGF-AA were obtained from R&D Systems (Minneapolis, USA). Human serum albumine (HSA), phosphate buffered saline (PBS) and all other reagents were ordered from Sigma-Millipore. The aptamer was covalently linked to the solid support by spotting 4.5 μL of the 0.25 uM aptamer solution in 1× PBS buffer. The spots were incubated for 10 minutes to allow for surface immobilization and washed with 1× PBS buffer. Solutions with a variable amount of PDGF-BB or PDGF-AA (630 nM to 2 nM 3.16× dilution series or 300 nM to 75 nM 2× dilution series, respectively) and containing 0.75 mg/mL. HSA, 40% DMSO (v/v) were applied to the surface coated with the aptamers and incubated for 5 minutes at room temperature. The temperature was increased to 45° C. by placing the slide on a heating element. The change in fluorescence intensity of the modified aptamer was as a function of temperature was monitored by fluorescence microscope coupled to a CMOS sensor. FIGS. 9A and 10 presents normalized first derivative of the melting curves for PDGF-BB or PDGF-AA titration experiments, respectively. […]

PDGF-BB [2] = biological target: T1, PDGF-BB; assay: surface thermal melt; Tm about 32 C unbound to about 42 C bound; 0.75 mg/mL HSA, 40% DMSO; also bound peak about 55 C with 100 nM in human plasma without DMSO; details: chain copies: 2 (homodimer, inferred); label: 3' Cy3
Method: as §1, with “PDGF-BB” for “The solid support consisted of coated ITO glass slides functionalized with azido groups (Sikemia, Grabels, France) to form a covalent bond between the DBCO-labeled aptamer and the surface. PDGF-BB”

T1 sequence (P01127 82-190, one chain of several): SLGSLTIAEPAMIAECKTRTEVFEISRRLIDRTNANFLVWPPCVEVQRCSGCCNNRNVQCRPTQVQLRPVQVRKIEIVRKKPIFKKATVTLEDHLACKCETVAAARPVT

Binder	binding result (PDGF-BB [1])	binding result (PDGF-AA)	binding result (PDGF-BB [2])
TACTCAGGGCACTGCAAGCAATTGTGGTCCCAATGGGCTGAGTA (ssDNA) [41T aptamer (solution, FIG. 4A)]	binds		
TTTTTTACTCAGGGCACTGCAAGCAATTGTGGTCCCAATGGGCTGAGTA (ssDNA, 5' DBCO-TEG via five-thymidine linker, thymine-linked Black Hole Quencher 2) [41T aptamer (surface-immobilized, FIG. 4B)]		no binding	binds
